# Experimental data published in article PMC3910112.
# pKd: −log10 of the molar value.
# Target: fluorescein-labelled mouse EAG1 eag domain (FL-eag) (mouse) (UniProt Q60603)
# Assay: fluorescence polarisation
substance,measurement,value
mouse EAG1 (mEAG1) CNBHD (residues 552-724) (from UniProt Q60603 552-724) (domain or fragment),pKd,4.88
